Test results reported in the supplement of paper PMC12764529.
± gives the half width of the 95% confidence interval.

What was measured:
[1] = folding stability dG unfold from chymotrypsin proteolysis; higher = more stable
Method in brief: (§1)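 Unfolding free energy was derived, per protease or combined, against a sequence-predicted unfolded-state K50 and a shared folded-state K50, starting from K50 inferred by Bayesian fitting of sequencing counts. Digestion with trypsin and chymotrypsin was carried out on designed mini-proteins under 80 residues without cysteine in a PA-tagged cDNA display construct. Only designs with AlphaFold2 dimer inter-PAE above 15 were kept.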

[2] = folding stability dG unfold (combined trypsin and chymotrypsin); higher = more stable
Method in brief: as §1

[3] = folding stability dG unfold from trypsin proteolysis; higher = more stable
Method in brief: as §1

Sequence | folding stability dG unfold [1] | folding stability dG unfold [2] | folding stability dG unfold [3]
SAGPVTIPIFYRVPPGEPMTPEAKEFAIELAKYIARLFPPGYKIEIDSIEWERHPNYYYFRVTIEIEPPSAG [r5_121_TrROS] | 3.8 ± 0.085 kcal/mol | 3.62 ± 0.27 kcal/mol | 3.64 ± 0.16 kcal/mol
SAGGSAMKIEEIEKVELKKNENGELTAKIIIKDKKTNKYIEIEITVKPGMTLEEIKKLAEELLKKLSAGGSA [r15_181_TrROS_Hall] | 1.96 ± 0.075 kcal/mol | 2.73 ± 0.14 kcal/mol | 3.42 ± 0.13 kcal/mol
SAGGSAGGWQPIAEHEFENPEDGKKIKIYYWPENGMMRIEFPNGRKHVIPPGDPFKSIEEMIKASAGGSAGG [r6_72_TrROS] | 1.81 ± 0.059 kcal/mol | 1.54 ± 0.14 kcal/mol | 1.15 ± 0.071 kcal/mol
SAGGSKKVDIKPGKVKKVEVKTLPNGKKLLVLYFPLEDGKEKVVVISSDFKTPEEALEAAYKQLGKSAGGSA [r2_347_TrMRF] | 1.21 ± 0.066 kcal/mol | 1.23 ± 0.21 kcal/mol | 1.02 ± 0.049 kcal/mol
SAGGPEVFVFRDPLTGTWSLAVYDPSTGLWTVTYPDGTVALYRRSGDSWELVEARPVPPAPVDPDLASAGGS [r16_687_TrMRF] | 3.714 ± 0.014 kcal/mol | 3.54 ± 0.065 kcal/mol | 3.34 ± 0.12 kcal/mol
SAGTIVFSRDELKELGIPEDMTVEEIKQKILDRLKEEGYEVKITKIEVVEVDEEEGRVLVRITIEVKKPSAG [r5_23_TrROS_Hall] | 4.28 ± 0.13 kcal/mol | 4.17 ± 0.13 kcal/mol | 3.69 ± 0.14 kcal/mol
SAGGKKNEKKPIEIDGVFFNPETGKLVKIGPAKIIVPKNAKIELEAEVFDPVTGEVKKVKFKFELPAGSAGG [r13_206_TrMRF] | 0.816 ± 0.094 kcal/mol | 0.699 ± 0.14 kcal/mol | 0.548 ± 0.057 kcal/mol
SAGGSAGGGDLVVYRLEVRRFEPGTGRLVETRSRTVVVPKEDLPELLERIPPGYEVLRIEAFPESAGGSAGG [r6_776_TrMRF] | 0.361 ± 0.16 kcal/mol | 0.494 ± 0.11 kcal/mol | 0.636 ± 0.067 kcal/mol
SAGGSAGGSAGGSKPKMYILKIKIKVEVKYDKETNEIVEEEIEIEIEIIEVKPGEKLELSAGGSAGGSAGGS [r4_175_TrROS_Hall] | 3.28 ± 0.092 kcal/mol | 2.52 ± 0.35 kcal/mol | 1.42 ± 0.13 kcal/mol
SAGGLLVADEAGVPLSPVPPVPPIPVQVTFPDGTKVTIEYYPGLNEVKVEYEGDDPAKVAEIVKEILKSAGG [r13_701_JUSTAS] | 0.444 ± 0.11 kcal/mol | 0.443 ± 0.13 kcal/mol | 0.146 ± 0.15 kcal/mol
SAGGKKKAKAYIVEKTTEKEGLKYYKVLIELGGKPLVFVIKSTSLEEVEEAIKKLAEELGVEVEIVPGSAGG [r13_750_TrMRF] | 4.69 ± 0.089 kcal/mol | 4.53 ± 0.08 kcal/mol | 3.77 ± 0.1 kcal/mol
SPVSLSFTTAPSGLPTVTSASQPADGSLLLTLTEPATGATTTLTLPPGLPPGVERTVTLPGPDGATTLTVGS [r1_43_JUSTAS] | 0.723 ± 0.11 kcal/mol | 0.364 ± 0.073 kcal/mol | -0.678 ± 0.19 kcal/mol
SAGGSAGGSAGGSTPSFTPVLELEFEFENDVVVRVRLYRLPDEDTYLLEVEVAPDSLKDSAGGSAGGSAGGS [r4_163_TrMRF] | 4.11 ± 0.1 kcal/mol | 3.62 ± 0.13 kcal/mol | 2.88 ± 0.093 kcal/mol
SKLKIEEIEINPNMPYTISVKLPDGFYISIQYDPGKPDQMKMNIFPPDGKKREHTIPANEPIRINFEIEPSA [r9_875_TrROS] | 2.55 ± 0.04 kcal/mol | 2.19 ± 0.12 kcal/mol | 1.35 ± 0.034 kcal/mol
SAGGSAGGSAKIWIILKDADEARDRIEELFGPGVRIEPVNIQRWDGKVYVMIEIEIPPNMTSAGGSAGGSAG [r3_87_TrROS] | 2.4 ± 0.051 kcal/mol | 2.28 ± 0.054 kcal/mol | 2.1 ± 0.055 kcal/mol
SAGGDVTIEWFPMSEEEMKKMMEEMPPNTIMIPFPGNGYFIPVRVPDDPEEADKIAEEIRKWLEQLPSAGGS [r16_311_TrROS] | 1.44 ± 0.024 kcal/mol | 1.62 ± 0.063 kcal/mol | 1.81 ± 0.057 kcal/mol
SAGGSAGGSAGPNAVYLGELEVTTRNPDGDRPLRVRVELYLVPTPEGLRLLARVLEVEELSAGGSAGGSAGG [r11_113_TrMRF] | 3.644 ± 0.021 kcal/mol | 3.4 ± 0.04 kcal/mol | 2.81 ± 0.052 kcal/mol
SAGGSAGGSAGGSAPYPNTVVPTPLLSSVVTETTVEFFPDGTVVPVSTTTTVVLVYRLLSAGGSAGGSAGGS [r4_288_JUSTAS] | 4.75 ± 0.12 kcal/mol | 4.53 ± 0.15 kcal/mol | 3.54 ± 0.13 kcal/mol
SAGGSAETLVITLPPELEGLSEEELLALLKALLPPGAEITEIRVERLPDGSLRVTVTVRVPPPEEPSAGGSA [r15_451_TrROS_Hall] | 2.18 ± 0.061 kcal/mol | 2.65 ± 0.15 kcal/mol | 3.33 ± 0.24 kcal/mol
SMKIYKTKEEAEKAAKETGKKVIVIKKGMSLEELLELLKKLKGLKEGQKVILVIQNEDGETYVIVLEIKPSA [r9_314_TrROS_Hall] | 1.43 ± 0.13 kcal/mol | 1.74 ± 0.17 kcal/mol | 1.82 ± 0.099 kcal/mol
SAGGSAGGSWIWVIKIENPEKGREYTFFIPGPLEDIKDHIREWNPDPDVKVEIQRIPVSPEAFSAGGSAGGS [r12_92_TrROS] | 2.11 ± 0.096 kcal/mol | 1.89 ± 0.094 kcal/mol | 1.68 ± 0.054 kcal/mol

Sequence | folding stability dG unfold [1] | folding stability dG unfold [2] | folding stability dG unfold [3]
SAGGSAGDPSLPQPQYIAFLLVTKPGGVEEPLEVEVKTEEEAEKIAQEVRDAGYEVELELRPAALLSAGGSA [r15_906_JUSTAS] | 0.945 ± 0.28 kcal/mol | 1.44 ± 0.38 kcal/mol | 1.72 ± 0.16 kcal/mol
SAGGSAGGSAGGEKKWIFMVSFRHPDGKERKFTFPWNDLEEIKENLPGIDDVEIEWMPMSAGGSAGGSAGGS [r10_437_TrROS] | 0.961 ± 0.28 kcal/mol | 0.773 ± 0.19 kcal/mol | -0.025 ± 0.2 kcal/mol
SAGGLIIPEEYEIVEKKAEILPDGSLRYTFILRPKSGELLLVEIRYPPDGSIEIEARRLTPEELKKALSAGG [r13_773_TrMRF] | 3.71 ± 0.045 kcal/mol | 3.56 ± 0.074 kcal/mol | 3.13 ± 0.076 kcal/mol
SAGGIKIEIMFLMPLKDVRSIIDEIAKMPGIKITDVEVDIIPFENGTVMFRVTFEIEIYDPENGEPISAGGS [r8_374_TrROS] | 4.78 ± 0.18 kcal/mol | 4.27 ± 0.36 kcal/mol | 3.95 ± 0.21 kcal/mol
SAGGMELPPEVKTIAEKLEAEGYDVLAVPVGDSYVIAVDGKVAATPEEFEKLKKIPGVKKLITIDLPSAGGS [r16_275_TrMRF] | 0.583 ± 0.049 kcal/mol | 0.541 ± 0.13 kcal/mol | 0.432 ± 0.056 kcal/mol
SAGGSAGGSMRTLKARITLRGPDGVEYRFEFEIPAGSAEDVVAFLKNLPVPPGWEVELEVLDESAGGSAGGS [r20_162_TrMRF] | 5.54 ± 0.088 kcal/mol | 5.44 ± 0.1 kcal/mol | 4.42 ± 0.16 kcal/mol
SAGGSAGGSAAPLEARLVSVSRDPAGNRLHAVYVVRDPSTGEQYLVTFSADPTSISVRVERVSAGGSAGGSA [r18_444_TrMRF] | 4.48 ± 0.089 kcal/mol | 3.96 ± 0.071 kcal/mol | 2.69 ± 0.12 kcal/mol
SAGGSKYPIEVTDPENGNPVLLEDVESLASVTQEEPGDGRSLYTATVPETGEPVFLTSPEKLAAALSSAGGS [r8_206_JUSTAS] | 0.0753 ± 0.19 kcal/mol | 0.384 ± 0.11 kcal/mol | 0.593 ± 0.035 kcal/mol
SAGMTLVAVNRETGEVNVIELDPEDPELVTVTYPNGEKETFPLAEIAERLGLPVSLLLNDYDIERIYGSSAG [r5_156_TrMRF] | 1.38 ± 0.057 kcal/mol | 1.71 ± 0.084 kcal/mol | 1.95 ± 0.086 kcal/mol
SAGGSAGGSAGGNEEDIEKAVKEAKEKGENAEVKVTLPNGKEETVYIEVNVKEPSEKLKSAGGSAGGSAGGS [r10_573_JUSTAS] | -1.04 ± 0.22 kcal/mol | < -1 kcal/mol | -1.05 ± 0.47 kcal/mol
SAGGGMGRIPLYGEERVEEIAAEPDVVSVEEDPETGRTYVYFERPDGYYSFTRDNETGEITEKTPLPSAGGS [r8_251_JUSTAS] | -0.523 ± 0.5 kcal/mol | -0.237 ± 0.21 kcal/mol | -0.462 ± 0.23 kcal/mol
SAGLLEVLRKIAEELGWELTSVEVHELPDGSVVATGEFRKGDRTYRVDIRYDPETGRVEVRLEPVPVPESAG [r14_784_TrMRF] | 5.51 ± 0.2 kcal/mol | > 6 kcal/mol | 4.6 ± 0.22 kcal/mol
SAGGSAGGSPPMKTYEHWIRFDSPEQAVEEVANHIQDHFGLEIKSVEIEYDPENGWVRVKIVISAGGSAGGS [r12_265_TrROS] | 3.449 ± 0.029 kcal/mol | 3.12 ± 0.14 kcal/mol | 2.71 ± 0.075 kcal/mol
SAGGSAGGSMIDDIVEKLKIPPGTRIVFNDGEVKYFDNREDIKEWAKNGYPAEKLKNIVAFPESAGGSAGGS [r12_430_TrMRF] | 0.491 ± 0.1 kcal/mol | 0.251 ± 0.12 kcal/mol | -0.276 ± 0.15 kcal/mol
SAGGMVLVRIRVDMSPEERKRLEEELRKRVTEVRYLPEDEDVVEVRVSPEALAELPEERITEVELLPSAGGS [r16_328_TrROS_Hall] | -0.654 ± 0.32 kcal/mol | -0.0298 ± 0.097 kcal/mol | 0.217 ± 0.15 kcal/mol
SAGGSSPEELAEKAINEAMEKFGFKEISEIKIQKEDDGVRITIRMPNNGYTIEIDYEDGKITEIQPWSAGGS [r16_171_TrROS] | 0.23 ± 0.2 kcal/mol | 1.1 ± 0.083 kcal/mol | 1.53 ± 0.051 kcal/mol
SAGNSNTRYIVRIKIKKYNPETGKIEEIEIDVPISDDDLNIPVEKIIEALKKAFPNTEIEAEITKVPASAGG [r19_189_TrMRF] | 3.88 ± 0.13 kcal/mol | 3.74 ± 0.17 kcal/mol | 3.77 ± 0.29 kcal/mol
SAGGSAGGSAGGSGVSITTTLPVKTTVLQPFNTFENKLLLKEVEKTILTTVTLTLPPLLSAGGSAGGSAGGS [r4_326_JUSTAS] | -0.0828 ± 0.29 kcal/mol | 0.148 ± 0.21 kcal/mol | 0.316 ± 0.068 kcal/mol
SAGGSAGGSAGGSAPPNLIIFIHVEIKIKEPKFDPGNGKPEYEIEITDIPIQIMPPDDLSAGGSAGGSAGGS [r4_417_TrROS] | 2.39 ± 0.088 kcal/mol | 2.26 ± 0.11 kcal/mol | 2.15 ± 0.16 kcal/mol
SAGGSAPVVVVVTPKNGKPIKLKFKFTKKEEAEAAVEEIKKALPKNTKVEAFYVDEEVVKEDKEYLSAGGSA [r15_469_TrMRF] | 1.97 ± 0.068 kcal/mol | 1.71 ± 0.054 kcal/mol | 1.16 ± 0.017 kcal/mol
SAGPKMKPIPFEFRNPDNGHKVKISVYYNPNGKRKIMITNPGDGRIYTFKINPGGIEIEKEIPLDDIKFSAG [r5_619_TrROS] | 0.857 ± 0.67 kcal/mol | 0.83 ± 0.36 kcal/mol | 1.13 ± 0.13 kcal/mol
